Laboratory results published in article PMC11796124.

Molecular target: DP71L-Flag (Flag-tagged ASFV DP71L), expressed in HEK293T cells
Settings: parent: est. 0.52; read off a plot

| Substance | response (Relative IntDEN to β-actin) |
| --- | --- |
| STING-Strep (Strep-tagged STING) (from UniProt Q86WV6) L374A | 0.14 |
| STING-Strep (Strep-tagged STING) (from UniProt Q86WV6) R375A | 0.04 |
